Results taken from article doi:10.1101/2021.10.03.462214.

Molecular target: human 26S proteasome (human) (UniProt P60900)

Kd: 239 nM
Substance: K48 linked tetra-ubiquitin chains (from UniProt P0CG47 1-76)
